According to patent US20220193237A1 (Bristol-Myers Squibb, published 2022):
Changes are numbered by the printed parent chain. Names may count otherwise. Where two headings read alike, the source gives them in different places. Blank lines part the entries; values can stand above or below the binder they belong to.

Experiments:
[1] = target: T1, human CTLA-4 on 58 α-β-CTLA-4/CD3 ζ cells (human; mouse (mCD3ζ)); assay: flow cytometry (GMFI), full-length IgG on 58 α-β-CTLA-4/CD3 ζ cells, pH 6.3
T1 construct: also called 58αβ-hCTLA4/mCD3ζ cells; 58αβ-CTLA4/mCD3ζ cells

[2] = target: T1, human CTLA-4 on 58 α-β-CTLA-4/CD3 ζ …; assay: flow cytometry (GMFI), full-length IgG on 58 α-β-CTLA-4/CD3 ζ cells, pH 6.6
monomeric human CTLA-4 [3] = target: T2, monomeric human CTLA-4 (human, UniProt P16410 36-161, limits assumed); assay: SPR, captured Fab, pH 6.0
T2 construct: Soluble monomeric analyte in SPR; also called huCTLA-4
T2 sequence: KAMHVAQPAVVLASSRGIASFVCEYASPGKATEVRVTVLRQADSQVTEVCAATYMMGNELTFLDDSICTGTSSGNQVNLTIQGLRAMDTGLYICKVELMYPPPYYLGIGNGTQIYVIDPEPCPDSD
Protocol: (§1) Binding of selected variants to human CTLA-4 was determined essentially as described in Example 3. […] Nomenclature and sequences for these antibodies is provided at Tables 6 and 7, and in the sequence listing as summarized at Table 8.
(§2) Monomeric human CTLA-4 was flowed as analyte with up to 2 μM top concentration. Between cycles, the capture surface was regenerated with 75 mM phosphoric acid. Experiments were run on a BIACORE® T200 instrument at 37° C. Running buffers were HEPES buffered saline for pH 7.4 experiments and Bis-Tris buffered saline for lower pH experiments. […] Double referenced sensorgrams were fitted to a 1:1 Langmuir binding model with mass transport to determine equilibrium dissociation constants (KD), as well as association (kₐ) and dissociation (kd) rate constants where appropriate.

monomeric human CTLA-4 [4] = target: T2, monomeric human CTLA-4; assay: SPR, captured Fab, pH 7.4
Protocol: as §1, §2

monomeric human CTLA-4 [5] = target: T2, monomeric human CTLA-4; assay: SPR, captured Fab, pH 6.0; remark: listed apart in the source
Protocol: (§3) Unless otherwise indicated, experiments were performed with a BIACORE® SPR surface plasmon resonance spectrometer (Biacore AB, Uppsala, Sweden). Antibodies were tested as monovalent Fab fragments to simplify analysis.
as §2

monomeric human CTLA-4 [6] = target: T2, monomeric human CTLA-4; assay: SPR, captured Fab, pH 7.4; remark: listed apart in the source
Protocol: as §3, §2

monomeric human CTLA-4 [7] = target: T2, monomeric human CTLA-4; assay: SPR, captured Fab, pH 6.0 vs 7.4
Protocol: as §3, §2

monomeric human CTLA-4 [8] = target: T2, monomeric human CTLA-4; assay: SPR, captured Fab, pH 6.0 vs 7.4; remark: listed apart in the source
Protocol: as §1, §2

monomeric human CTLA-4 [9] = target: T2, monomeric human CTLA-4; assay: SPR, captured Fab, pH 7.4; remark: listed apart in the source
Protocol: (§4) See Example 3. Antibodies were tested as monovalent Fab fragments to simplify analysis.
as §2

monomeric human CTLA-4 [10] = target: T2, monomeric human CTLA-4; assay: SPR, captured Fab, pH 6.0; remark: listed apart in the source
Protocol: as §4, §2

monomeric human CTLA-4 [11] = target: T2, monomeric human CTLA-4; assay: SPR, captured Fab, first experiment of Table 3
Protocol: as §4, §2

monomeric human CTLA-4 [12] = target: T2, monomeric human CTLA-4; assay: SPR, captured Fab, pH 6.0 vs 7.4; remark: listed apart in the source
Protocol: as §4, §2

monomeric human CTLA-4 [13] = target: T2, monomeric human CTLA-4; assay: SPR, pH 6.0 and pH 7.5 (FIG. 6)
Protocol: as §3, §2

EC50 (read off the curve) [1]: ~1 nM
EC50 (read off the curve) [2]: ~1 nM
B1: ipi.95 (full-length IgG) (antibody, V domains shown)
VH: QVQLVESGGGVVQPGRSLRLSCAASGFTFSHYTMHWVRQAPGKGLEWVTFISYDGHNKYYADSVKGRFTISRDNSKNTLYLQMNSLRAEDTAIYYCARTGWLGPFDYWGQGTLVTVSS
VL: EIVLTQSPGTLSLSPGERATLSCRASQEVGDSELAWYQQKPGQAPRLLIYGAFSRATGIPDRFSGSGSGTDFTLTISRLEPEDFAVYYCQQYGSSPWTFGQGTKVEIKR
notes: Full-length bivalent IgG (human IgG1); heavy chain entry is without the C-terminal lysine

Kd (monomeric human CTLA-4 [3]): 7.7 nM
kon (monomeric human CTLA-4 [3]): 960000 M⁻¹ s⁻¹
t1/2 (monomeric human CTLA-4 [3]): 94 s
Kd (monomeric human CTLA-4 [4]): 8.6 nM
kon (monomeric human CTLA-4 [4]): 840000 M⁻¹ s⁻¹
t1/2 (monomeric human CTLA-4 [4]): 96 s
Kd (monomeric human CTLA-4 [5]): 20 nM
koff (monomeric human CTLA-4 [5]): 0.011 s⁻¹
kon (monomeric human CTLA-4 [5]): 560000 M⁻¹ s⁻¹
Kd (monomeric human CTLA-4 [6]): 17 nM
koff (monomeric human CTLA-4 [6]): 0.011 s⁻¹
kon (monomeric human CTLA-4 [6]): 650000 M⁻¹ s⁻¹
KD 7.4/6 (APBP) (monomeric human CTLA-4 [7]): 1.2
KD 7.4/6 (APBP) (monomeric human CTLA-4 [8]): 1.1
ka 6/7.4 (monomeric human CTLA-4 [8]): 1.1
t1/2 6/7.4 (monomeric human CTLA-4 [8]): 1
B2: ipi.1 Fab (Fab, V domains shown)
VH: B1 VH with H31S, T33H, H56N
VL: not shown
notes: Tested as monovalent Fab; also called T33H (Kabat)

Kd (monomeric human CTLA-4 [3]): 8.8 nM
kon (monomeric human CTLA-4 [3]): 1.1e+06 M⁻¹ s⁻¹
t1/2 (monomeric human CTLA-4 [3]): 75 s
Kd (monomeric human CTLA-4 [9]): 28 nM
koff (monomeric human CTLA-4 [9]): 0.018 s⁻¹
kon (monomeric human CTLA-4 [9]): 640000 M⁻¹ s⁻¹
Kd (monomeric human CTLA-4 [4]): 28 nM
kon (monomeric human CTLA-4 [4]): 640000 M⁻¹ s⁻¹
t1/2 (monomeric human CTLA-4 [4]): 39 s
Kd (monomeric human CTLA-4 [10]): 8.8 nM
koff (monomeric human CTLA-4 [10]): 0.0093 s⁻¹
kon (monomeric human CTLA-4 [10]): 1.1e+06 M⁻¹ s⁻¹
ratio of KD (7.4/6.0) normalized to the ratio of ipilimumab (monomeric human CTLA-4 [11]): 3.2
KD 7.4/6 (APBP) (monomeric human CTLA-4 [12]): 3.2
ka 6/7.4 (monomeric human CTLA-4 [12]): 1.7
kd 7.4/6 (monomeric human CTLA-4 [12]): 1.9
KD 7.4/6 (APBP) (monomeric human CTLA-4 [8]): 3.1
ka 6/7.4 (monomeric human CTLA-4 [8]): 1.7
t1/2 6/7.4 (monomeric human CTLA-4 [8]): 1.9
B3: ipi.18 Fab (Fab, V domains shown)
VH: B1 VH with H31S, H56N
VL: not shown
notes: Tested as monovalent Fab; also called S31D

Kd (monomeric human CTLA-4 [3]): 7.9 nM
kon (monomeric human CTLA-4 [3]): 1.1e+06 M⁻¹ s⁻¹
t1/2 (monomeric human CTLA-4 [3]): 83 s
Kd (monomeric human CTLA-4 [4]): 28 nM
kon (monomeric human CTLA-4 [4]): 800000 M⁻¹ s⁻¹
t1/2 (monomeric human CTLA-4 [4]): 32 s
CAPBP (ratio of KD normalized to ipilimumab) (monomeric human CTLA-4 [13]): 5.5
KD 7.4/6 (APBP) (monomeric human CTLA-4 [8]): 3.5
ka 6/7.4 (monomeric human CTLA-4 [8]): 1.3
t1/2 6/7.4 (monomeric human CTLA-4 [8]): 2.7
B4: ipi.57 Fab (Fab, V domains shown)
VH: B1 VH with H56N
VL: not shown
notes: Tested as monovalent Fab; also called HCDR1 S31H
